For 2 molecules, % Inhibition of Specific Binding and Percentage inhibition (%) results are on record in US20230212549A1, “COMPOUNDS COMPRISING A […] LIGAND AND USE THEREOF” (priority 2021, published 2023).

Bridge positions count the residues as written; N and C are the ends.

Assay [1] addresses T1, dopamine transporter (h) (human), Q01959.
T1 chain: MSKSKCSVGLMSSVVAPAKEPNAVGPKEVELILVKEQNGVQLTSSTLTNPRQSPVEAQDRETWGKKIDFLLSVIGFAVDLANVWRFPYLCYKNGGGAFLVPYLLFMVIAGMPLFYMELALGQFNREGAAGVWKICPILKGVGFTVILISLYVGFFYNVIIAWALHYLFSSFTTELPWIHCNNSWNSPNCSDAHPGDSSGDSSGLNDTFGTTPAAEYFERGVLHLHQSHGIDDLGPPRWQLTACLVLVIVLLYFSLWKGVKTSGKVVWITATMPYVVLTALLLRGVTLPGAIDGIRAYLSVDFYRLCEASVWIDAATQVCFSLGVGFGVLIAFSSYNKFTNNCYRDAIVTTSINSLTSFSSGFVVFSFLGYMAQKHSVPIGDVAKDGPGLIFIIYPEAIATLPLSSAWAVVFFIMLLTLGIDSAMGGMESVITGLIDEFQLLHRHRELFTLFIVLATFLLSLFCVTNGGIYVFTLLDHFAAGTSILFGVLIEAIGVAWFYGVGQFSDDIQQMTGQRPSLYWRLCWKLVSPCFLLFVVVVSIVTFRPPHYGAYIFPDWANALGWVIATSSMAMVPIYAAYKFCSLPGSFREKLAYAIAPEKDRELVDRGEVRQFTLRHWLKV
Kind of assay: radioligand displacement (antagonist radioligand), 10 µM. To be noted: remark: other sources report otherwise.

For the next assay, the target named is T2, DPP3, Q9NY33.
T2 chain: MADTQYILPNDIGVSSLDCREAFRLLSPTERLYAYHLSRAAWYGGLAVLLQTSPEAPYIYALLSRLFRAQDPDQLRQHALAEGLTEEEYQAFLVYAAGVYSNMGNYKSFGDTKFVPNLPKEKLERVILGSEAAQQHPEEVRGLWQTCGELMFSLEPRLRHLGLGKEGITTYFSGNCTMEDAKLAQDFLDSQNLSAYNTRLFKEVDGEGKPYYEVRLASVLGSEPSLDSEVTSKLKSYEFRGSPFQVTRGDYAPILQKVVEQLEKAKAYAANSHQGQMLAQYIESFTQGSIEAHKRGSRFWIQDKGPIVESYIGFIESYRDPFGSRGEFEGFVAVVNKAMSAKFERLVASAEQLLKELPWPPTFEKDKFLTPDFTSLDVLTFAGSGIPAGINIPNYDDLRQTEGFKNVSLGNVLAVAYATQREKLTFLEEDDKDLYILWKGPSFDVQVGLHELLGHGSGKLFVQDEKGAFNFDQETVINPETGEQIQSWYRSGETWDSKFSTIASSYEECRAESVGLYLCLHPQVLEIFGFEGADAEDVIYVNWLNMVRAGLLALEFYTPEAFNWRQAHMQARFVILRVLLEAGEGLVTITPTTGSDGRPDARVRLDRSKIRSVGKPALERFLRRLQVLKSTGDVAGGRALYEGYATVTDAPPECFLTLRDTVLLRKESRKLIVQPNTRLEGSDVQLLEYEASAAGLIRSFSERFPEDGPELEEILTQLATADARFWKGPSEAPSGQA
Kind of assay: cell-based or functional assay.

B1: Hex-[Cys(tMeBn(DOTA-AET))-Pro-Pro-Thr-Gln-Phe-Cys]-OH (peptide)
peptide: Hex-CPPTQFC-OH
modifications: bridge 1-7; not fully specified (bridges); printed as Hex-[Cys(tMeBn(DOTA-AET))-Pro-Pro-Thr-Gln-Phe-Cys]-OH
On to B1, for which the % Inhibition of Specific Binding in assay [1] amounted to 7%. In addition, in the assay with DPP3, Q9NY33, the Percentage inhibition (%) at 1 µM was 2% and the Percentage inhibition (%) at 10 µM is -1%.

B2: Hex-[Cys(tMeBn(DOTA-PP))-Pro-Pro-Thr-Gln-Phe-Cys]-Asp-NH2 (peptide)
peptide: Hex-CPPTQFCD-NH2
modifications: bridge 1-7; not fully specified (bridges); printed as Hex-[Cys(tMeBn(DOTA-PP))-Pro-Pro-Thr-Gln-Phe-Cys]-Asp-NH2
With B2, in assay [1], the % Inhibition of Specific Binding turned out to be 12%.
